How the values were obtained:
[1] = biological target: T1, His6-TEV-MSP1D1 (CA15914) (human Apo A-I derived, engineered, biotinylated with EZ-link NHS-Biotin for the BLI experiment only); assay: ELISA, purified MegaBody on coated MSP (Apo- or Nanodisc-state) vs non-coated wells, A405
T1 construct: Membrane scaffold protein; The entry holds the 6xHis tag, the TEV cleavage site and MSP1D1; Tested in Apo-state (lipid free) and in Nanodisc-state (POPC nanodisc, two MSP1D1 per nanodisc)
T1 chain: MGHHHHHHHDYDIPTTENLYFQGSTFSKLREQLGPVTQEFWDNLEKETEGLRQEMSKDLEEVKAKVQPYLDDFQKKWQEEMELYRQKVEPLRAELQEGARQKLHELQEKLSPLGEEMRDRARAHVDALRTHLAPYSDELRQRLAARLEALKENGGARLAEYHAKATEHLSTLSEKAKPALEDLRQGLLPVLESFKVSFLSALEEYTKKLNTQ

[2] = biological target: T2, His6-TEV-MSP2N2 (CA15915) (human Apo A-I derived, engineered, UniProt P02647 79-267, limits assumed); assay: as above
T2 construct: Membrane scaffold protein; The entry holds the 6xHis tag, the TEV cleavage site and MSP2N2; Tested in Apo-state, in Nanodisc-state, and as the belt of nanodiscs loaded with GABAAR-β3

[3] = biological target: T1, His6-TEV-MSP1D1 (CA15914); assay: ELISA, periplasmic extract on coated MSP (1 µg/mL in 100 µL, Apo- and Nanodisc-state), EPEA-tag detection, OD405 after 1 h
Protocol: (§1) Nanobodies were detected after 1 h (FIG. 2A) and overnight (FIG. 2B) subsequent incubation with a biotinylated CaptureSelect antibody and developed with a Streptavidin Alkaline Phosphatase conjugate.

[4] = biological target: T2, His6-TEV-MSP2N2 (CA15915); assay: as above
Protocol: as §1

[5] = biological target: T1, His6-TEV-MSP1D1 (CA15914); assay: ELISA, periplasmic extract on coated MSP (1 µg/mL in 100 µL, Apo- and Nanodisc-state), EPEA-tag detection, OD405 after overnight
Protocol: as §1

[6] = biological target: T2, His6-TEV-MSP2N2 (CA15915); assay: as above
Protocol: as §1

B1: MbNbB1^c7HopQ MegaBody (CA15908) (other)
chain: QVQLVESGGGLVQTKTTTSVIDTTNDAQNLLTQAQTIVNTLKDYCPILIAKSSSSNGGTNNANTPSWQTAGGGKNSCATFGAEFSAASDMINNAQKIVQETQQLSANQPKNITQPHNLNLNSPSSLTALAQKMLKNAQSQAEILKLANQVESDFNKLSSGHLKDYIGKCDASAISSANMTMQNQKNNWGNGCAGVEETQSLLKTSAADFNNQTPQINQAQNLANTLIQELGNNTYEQLSRLLTNDNGTNSKTSAQAINQAVNNLNERAKTLAGGTTNSPAYQATLLALRSVLGLWNSMGYAVICGGYTKSPGENNQKDFHYTDENGNGTTINCGGSTNSNGTHSYNGTNTLKADKNVSLSIEQYEKIHEAYQILSKALKQAGLAPLNSKGEKLEAHVTTSKYGSLRLSCTASGFSLSSSYMDWVRQAPGKGIEWVSTISPGGRITYAVSVEGRFTLSRDNAKNTLSLQMNELKPEDTAVYYCRRLGEKGQGTQVTVSSHHHHHHEPEA
notes: MegaBody: c7HopQ scaffold inserted in the first β-turn of Nanobody MP1521_B1; Entry includes 6xHis and EPEA tags
fold ELISA signal over no MSP [1]: ≥ 4 fold
fold ELISA signal over no MSP [2]: ≥ 4 fold

B2: MP1522_C10 Nanobody (CA15891) (VHH)
VHH: QVQLVESGGGLVQAGGSLRLACAASGRTSGSYAIGWFRQAPGKEREFAAAISFTAGVTYYSNSVKGRFTISRDSAKNTAYLQMNTLKPEDTAVYYCATLPSLVLILTAKPNIGYWGQGTQVTVSS
notes: Entry includes 6xHis and EPEA tags; tested as periplasmic extract
binding result [3]: binds
binding result [4]: binds

B3: MP1521_B1 Nanobody (CA15895) (VHH)
VHH: QVQLVESGGGLVQPGGSLRLSCTASGFSLSSSYMDWVRQAPGKGIEWVSTISPGGRITYAVSVEGRFTLSRDNAKNTLSLQMNELKPEDTAVYYCRRLGEKGQGTQVTVSS
notes: as for B2
binding result [3]: binds
binding result [4]: binds

B4: MP1521_H5 Nanobody (CA15890) (VHH)
VHH: QVQLVESGGGLVQPGGSLKLSCAASGFTFSTYSMSWVRQAPGKGLEWVSRILTDGGTTSYPDSVKGRFTISRDNAKNTLYLQMNNLKPEDTAVYYCARGWPSDGYSGGYRGQGTQVTVSS
notes: as for B2
binding result [3]: binds
binding result [4]: binds

B5: MP1521_B4 Nanobody (CA15893) (VHH)
VHH: QVQLVESGGGLVQPGGSLRLSCAASKSFFNIYDLAWYRQAPGKQRELVASITKVGSTNYADSVKGRFTTSRDNAKKTVYLQMNSLKPEDTAVYYCNLVSPGGVYNYWGQGTQVTVSS
notes: as for B2
binding result [3]: binds
binding result [4]: binds

B6: MP1522_A5 Nanobody (CA15892) (VHH)
VHH: QVQLVESGGGLVQPGGSLRLSCAASGFAFSNSYMSWVRQAPGKGPEWVSSISPSAWIITHGDSVKGRFTISRDNAKNTLYLQMNHLKPEDAALYYCARRQGYDGYVPSRDYWGQGTQVTVSS
notes: as for B2
binding result [3]: binds
binding result [4]: binds

B7: MP1522_B7 Nanobody (CA15886) (VHH)
VHH: QVQLVESGGGLVQAGGSLRLSCAASGRSFSSYGMGWFRQAPGKEREFAAGITGTAGITYYTDSVKGRFTISRDNAKNTVYLQMNNLKPEDTAVYYCAAGLTSYAGRGAAGYDYWGQGTQVTVSS
notes: as for B2
binding result [5]: binds
binding result [6]: binds

B8: MP1522_B9 Nanobody (CA15888) (VHH)
VHH: QVQLVESGGGLVQAGGSLRLSCVRSARTFGSVAMGWFRQAPGKEREFVTAIDWSGSNTLYADSVKGRFTISRDNAKNTVYLQMNSLKPDDTAVYYCAASRRVVVTTSDFDSWGQGTQVTVSS
notes: as for B2
binding result [3]: binds
binding result [4]: binds

B9: MP1522_A12 Nanobody (CA15885) (VHH)
VHH: QVQLVESGGGLVQAGGSLRLSCAASGRTFSSYNMAWFRQVPGKEREFVASIARTGSGTYYRDSVKGRFTISRDNAKNTVYLQMNSLKPQDTAVYYCTAGGSLATISDYWGQGTQVTVSS
notes: as for B2
binding result [5]: binds
binding result [6]: binds

B10: MP1521_E1 Nanobody (CA15896) (VHH)
VHH: QVQLVESGGGLVQPGGSLRLSCAASGTITRSPTMSWARQAPGRQREWVTSILGTGRTDYADSVKGRFTISRDNANNTVYLQMNNLKPEDSAVYYCYTVLNGRPSWGQGTQVTVSS
notes: as for B2
binding result [3]: binds
binding result [4]: binds

B11: MP1521_B9 Nanobody (CA15883) (VHH)
VHH: QVQLVESGGGLVQAGGSLRLSCAASGRTLCSIPMGWFRQAPGKEREFVAAIRWSGGSTYYADSVKGRFSISKDNAKNTVYLQMNNLKPEDTATYYCASAAPYSSWSRGLEYDYWGQGTQVTVSS
notes: as for B2
binding result [3]: binds
binding result [4]: binds

B12: MP1521_G9 Nanobody (CA15884) (VHH)
VHH: QVQLVESGGGSVQAGGSLRLSCAASGRTFSTYRMGWFRQAPGKEREFVAGWNSINIYYADSVKGRFTISGDNAKSTVYLQMNSLKPEDTAVYYCAARGLGQTEYNYWGQGTQVTVSS
notes: as for B2
binding result [6]: binds
binding result [3]: binds

B13: MP1521_F3 Nanobody (CA15894) (VHH)
VHH: QVQLVESGGGLVQPGGSLRLSCAASGSGFGPNVMGWYRQAPGKRRELVATINRIGNINYGDSVKGRFTLSREIAVNTVYLQMNSLKPEDAANYYCYAAKYGVDYWGKGTQVTVSS
notes: Entry includes 6xHis and EPEA tags; tested as periplasmic extract; also called Nb F3
binding result [3]: binds
binding result [4]: binds

B14: MbNbE1^c7HopQ MegaBody (CA15909) (other)
chain: QVQLVESGGGLVQTKTTTSVIDTTNDAQNLLTQAQTIVNTLKDYCPILIAKSSSSNGGTNNANTPSWQTAGGGKNSCATFGAEFSAASDMINNAQKIVQETQQLSANQPKNITQPHNLNLNSPSSLTALAQKMLKNAQSQAEILKLANQVESDFNKLSSGHLKDYIGKCDASAISSANMTMQNQKNNWGNGCAGVEETQSLLKTSAADFNNQTPQINQAQNLANTLIQELGNNTYEQLSRLLTNDNGTNSKTSAQAINQAVNNLNERAKTLAGGTTNSPAYQATLLALRSVLGLWNSMGYAVICGGYTKSPGENNQKDFHYTDENGNGTTINCGGSTNSNGTHSYNGTNTLKADKNVSLSIEQYEKIHEAYQILSKALKQAGLAPLNSKGEKLEAHVTTSKYGSLRLSCAASGTITRSPTMSWARQAPGRQREWVTSILGTGRTDYADSVKGRFTISRDNANNTVYLQMNNLKPEDSAVYYCYTVLNGRPSWGQGTQVTVSSHHHHHHEPEA
notes: MegaBody: c7HopQ scaffold inserted in the first β-turn of Nanobody MP1521_E1; Entry includes 6xHis and EPEA tags
fold ELISA signal over no MSP [1]: ≥ 4 fold
fold ELISA signal over no MSP [2]: ≥ 4 fold

B15: MP1521_E4 Nanobody (CA15889) (VHH)
VHH: QVQLVESGGGLVQAGGSLRLSCAASGRTFGSTFMGWFRQAPGKERDFVASITWNRGLTTYADSVKGRFTISRDSAKNTVDLQMNNLKPEDTAVYYCVLGMGTSFASWGQGTQVTVSS
notes: as for B2
binding result [3]: binds
binding result [4]: binds

— patent publication US20220380456A1 (UNITED KINGDOM RESEARCH AND INNOVATION, published 2022)
